The values below come from US20050278809A1 (HER MAJESTY THE QUEEN IN RIGHT OF CANADA AS REPRESENTED BY …, published 2005).

Common to all, as to assay: GST pulldown, [35S]Met-labelled in vitro translated protein
Assay [1] concerns the target T1, GST alone (negative control) (UniProt P08515 1-218 = GST).
T1 construct: Negative control in the GST pulldown assays (6 µg per reaction)

For assay [2], the target named is T2, GST-HDA19 fusion protein (recombinant Arabidopsis thaliana HDA19 fused to glutathione S-transferase) (Arabidopsis thaliana, UniProt O22446 1-501).
T2 construct: Expressed in E. coli BL21-CodonPlus (DE3)-RP from pGEX-6P-2 (SalI/NotI) and purified under non-denaturing conditions; also called recombinant HDA19; not shown: glutathione S-transferase (GST) encoded by vector pGEX-6P-2 (Amersham Pharmacia)
T2 sequence (looked up): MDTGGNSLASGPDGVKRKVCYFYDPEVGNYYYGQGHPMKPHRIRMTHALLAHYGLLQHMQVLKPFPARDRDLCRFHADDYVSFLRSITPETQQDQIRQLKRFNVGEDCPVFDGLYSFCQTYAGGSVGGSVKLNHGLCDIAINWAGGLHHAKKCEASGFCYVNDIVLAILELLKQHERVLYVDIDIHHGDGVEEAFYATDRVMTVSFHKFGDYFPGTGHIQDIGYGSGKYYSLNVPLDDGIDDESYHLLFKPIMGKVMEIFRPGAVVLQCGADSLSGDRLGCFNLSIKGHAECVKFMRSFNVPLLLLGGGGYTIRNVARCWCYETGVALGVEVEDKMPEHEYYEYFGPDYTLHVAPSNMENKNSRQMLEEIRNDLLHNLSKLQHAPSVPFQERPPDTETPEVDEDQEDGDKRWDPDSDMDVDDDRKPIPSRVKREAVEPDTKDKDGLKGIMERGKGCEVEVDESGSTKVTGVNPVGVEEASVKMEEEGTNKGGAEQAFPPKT

The target of assay [3] is T3, GST-Gcn5 fusion protein (recombinant Arabidopsis HAT Gcn5 fused to glutathione S-transferase) (Arabidopsis, UniProt Q9AR19 1-568).
T3 construct: Expressed in E. coli from pGEX-6P-2 (SalI/NotI); also called GCN5 (HAT); histone acetyltransferase (HAT); not shown: glutathione S-transferase (GST) encoded by vector pGEX-6P-2 (Amersham Pharmacia)
T3 sequence (looked up): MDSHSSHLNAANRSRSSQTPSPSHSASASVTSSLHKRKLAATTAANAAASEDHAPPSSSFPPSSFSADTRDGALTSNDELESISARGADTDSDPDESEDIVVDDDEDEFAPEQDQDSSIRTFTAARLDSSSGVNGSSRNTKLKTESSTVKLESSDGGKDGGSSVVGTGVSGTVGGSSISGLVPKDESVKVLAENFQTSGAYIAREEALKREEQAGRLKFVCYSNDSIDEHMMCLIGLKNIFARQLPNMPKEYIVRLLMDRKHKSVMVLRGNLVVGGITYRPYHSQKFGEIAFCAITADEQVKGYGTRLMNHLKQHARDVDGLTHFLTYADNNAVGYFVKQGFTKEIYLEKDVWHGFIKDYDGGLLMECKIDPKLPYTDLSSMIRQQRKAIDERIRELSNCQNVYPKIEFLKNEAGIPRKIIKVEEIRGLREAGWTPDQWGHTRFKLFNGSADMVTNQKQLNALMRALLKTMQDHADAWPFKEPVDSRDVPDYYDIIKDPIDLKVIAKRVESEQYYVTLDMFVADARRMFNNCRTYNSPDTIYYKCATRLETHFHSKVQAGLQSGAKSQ

T1 sequence (P08515 whole entry): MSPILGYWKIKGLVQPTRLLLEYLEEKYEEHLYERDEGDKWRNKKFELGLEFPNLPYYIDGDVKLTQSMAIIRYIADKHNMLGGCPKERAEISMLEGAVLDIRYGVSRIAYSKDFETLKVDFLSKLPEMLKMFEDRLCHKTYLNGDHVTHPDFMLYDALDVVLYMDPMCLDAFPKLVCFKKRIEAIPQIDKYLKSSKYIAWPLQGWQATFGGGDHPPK

B1: BnSCL1 (Brassica napus SCARECROW-like protein 1), full-length, in vitro translated (other, not shown: small tags and cut ends)
chain: MDEHAMRSMDWDSIMKELEVDDDSAPYQLQPSSFNLPVFPDIDSSDVYPGPNQITGYGFNSLDSVDNGGFDYIEDLIRVVDCIESDELHLAHVVLSQLNQRLQTSAGRPLQRAAFYFKEALGSLLTGTNRNQLFSWSDIVQKIRAIKEFSGISPIPLFSHFTANQAILDSLSSQSSSPFVHVVDFEIGFGGQYASLMREIAEKSANGGFLRVTAVVAEDCAVETRLVKENLTQFAAEMKIRFQIEFVLMKTFEILSFKAIRFVDGERTVVLISPAIFRRVIGIAEFVNNLGRVSPNVVVFVDSEGCTETAGSGSFRREFVSAFEFYTMVLESLDAAAPPGDLVKKIVETFLLRPKISAAVETAANRRSAGQMTWREMLCAAGMRPVQLSQFADFQAECLLEKAQVRGFHVAKRQGELVLCWHGRALVATSAWRF
modifications: labeled with [^35S]methionine
notes: also called wild type BnSCL1
With B1, the binding result in assay [1] was “no binding”.

B2: ΔBnSCL1^1-145, in vitro translated (other, not shown: small tags and cut ends)
chain: MDEHAMRSMDWDSIMKELEVDDDSAPYQLQPSSFNLPVFPDIDSSDVYPGPNQITGYGFNSLDSVDNGGFDYIEDLIRVVDCIESDELHLAHVVLSQLNQRLQTSAGRPLQRAAFYFKEALGSLLTGTNRNQLFSWSDIVQKIRA
modifications: labeled with [^35S]methionine
notes: C-terminal truncation lacking the VHIID motif
For the molecule B2, in assay [2], the binding result is reported as “no binding”.

B3: bnKCP1 (B. napus KID-containing protein 1), full-length, in vitro translated (other)
chain: MAGGGPTFSIELSAYGSDLPTDKASGDIPNEEGSGLSRVGSGIWSGRTVDYSSESSSSIGTPGDSEEEDEESEEDNDEEELGLASLRSLEDSLPSKGLSSHYKGKSKSFGNLGEIGSVKEVPKQENPLNKKRRLQIYNKLARKSFYSWQNPKSMPLLPVHEDNDDEEGDDGDLSDEERGGDVLARRPSFKNRALKSMSCFALSDLQEEEEEEEDE
modifications: labeled with [^35S]methionine
notes: Produced by TNT-Quick coupled in vitro transcription/translation from pET-28b (HindIII/XhoI); also called wild type bnKCP1; pET-28b bnKCP1
Turning to B3, the binding result in assay [1] is listed as “no binding”.

B4: ΔbnKCP1^1-80 (residues 1-80), in vitro translated (other)
chain: MAGGGPTFSIELSAYGSDLPTDKASGDIPNEEGSGLSRVGSGIWSGRTVDYSSESSSSIGTPGDSEEEDEESEEDNDEEE
modifications: labeled with [^35S]methionine
notes: C-terminal truncation lacking the KID domain, translated in vitro from pET-28b; Vector-encoded residues are not described
B4: the binding result in assay [2] and in assay [3] was “no binding” each time.

B5: ΔbnKCP1^1-160 (residues 1-160), in vitro translated (other)
chain: MAGGGPTFSIELSAYGSDLPTDKASGDIPNEEGSGLSRVGSGIWSGRTVDYSSESSSSIGTPGDSEEEDEESEEDNDEEELGLASLRSLEDSLPSKGLSSHYKGKSKSFGNLGEIGSVKEVPKQENPLNKKRRLQIYNKLARKSFYSWQNPKSMPLLPVH
modifications: labeled with [^35S]methionine
notes: as for B4
Consider B5, for which the binding result in assay [2] and in assay [3] was “no binding” each time.
